Reference: patent US5858728, “Monoclonal antibody against LPS core” (Common Services Agency, dated 1999)
Numbering of substitutions follows the chain as printed.

Target: bovine serum albumin (bovine, UniProt P02769)
Assay: ELISA, plate coated with BSA as negative control (panel of purified LPS)
Method: Microtitre plates (flat bottomed; microtest III flexible assay plates: Becton Dickinson, Falcon 3912) are coated with purified LPS at 2 µg/ml in coating buffer (diethylenebarbituric acid-Na salt 30 mM. Na acetate 30 mM, NaCl 116 mM; pH 4.5). 50 µl aliquots of the LPS solution are distributed into each well. Unrelated protein (BSA, 2% in PBS pH 7.2/0.02% sodium azide) is used to determine non-specific binding. Plates are incubated for 1 hr at 37° C. and then overnight at 4° C. in a humidified chamber. Plates are washed 4 times with a washing solution i.e. phosphate buffered saline (PBS) pH 7.2, 0.05% vol/vol Tween 20, 0.02% sodium azide. Plates are blocked with 250 µl/well of 2% BSA in PBS/sodium azide 0.02% for 3 hrs at room temperature. Plates are washed again.
Antibody solutions are prepared in PBS/BSA 2%/sodium azide 0.02% at various dilutions, e.g. 1 µg/ml, 100 ng/ml, 10 ng/ml and 1 ng/ml. 50 µl aliquots of these solutions are distributed in the wells of the precoated plates. Incubation is carried out overnight at room temperature. […] After 1 hr, absorbance is read at 405 nm using a Titertek Multiskan ELISA reader (MCC/340, Flowlabs).

B1: murine monoclonal antibody WN1 222-5 (antibody, V domains shown)
VH: EVKLVESGGGLVQPGGSLSLSCAASGFTFSDYYMTWVRQAPGKAPEWLALIRNKRNGDTAEYSASVKGRFTISRDYSRSILHLQMNALRTEDSATYYCVRQGRGYTLDYWGQGTSVTVSS
VL: DIQMNQSPSSLSASLGDTISITCRASQNINIWLSWYQQKPGNVPKLLIYKASNLHTGVPSRFSGSGSGTDFTLIISSLQPEDIATYYCLQGQSYPRTFGGGTKLEIK
B1: no binding (tested: 100 ng/ml).

B2: murine monoclonal antibody WN1 58-9 (antibody, V domains shown)
VH: EVKLVESGGGLVQPGGSLRLSCAASGFTFIDYYMTWVRHPPGEAPEWLALIRNYRNGDTAEYSASVRGRFTISRDDSQSILYLQMNALRAEDSATYYCVRQGRGYTLDYWGQGTSVTVSS
VL: B1 VL with S20T, S26R, Q27L, P40A, V43I, Y49S, I74T, Q79R
B2: no binding (tested: 100 ng/ml).
